Assay results published in PMC2912373, “Low-Density Lipoprotein Receptor-Related Protein 1 (LRP1) Mediates Neuronal Aβ42 Uptake and Lysosomal Trafficking” (PLoS ONE, 2010).
Entries after “also recorded” stand apart in the source; their conditions may differ.

Columns and labels:
[1] = system: N2a-mLRP4 cells; assay: MTS redox cell viability assay in Aβ42 treated cells; assay type: cell-based, mouse; details: 3 µM Aβ42, 72 h; only in mLRP4-expressing cells, not N2a-pcDNA3; p<0.05, n = 3
Experimental: We hypothesized that Aβ42 treatment might increase cell death in mLRP4-overexpressing N2a cells because we detected increased co-localization of Aβ42 with lysosomes in these cells. We treated N2a-pcDNA3 and N2a-mLRP4 cells with Aβ42 for 24, 48 and 72 h and assessed cell viability by reduction of the MTS redox dye. Aβ42 was prepared identically to the FAM-Aβ42 experiments.
Figure 5 Increased susceptibility to Aβ42-mediated cell death in LRP1 minireceptor-expressing cells. N2a-pcDNA3 and N2a-mLRP4 cells were incubated with increasing concentrations of Aβ42 for 24, 48 and 72 h and cell viability was assessed by the reduction of the MTS dye.
N2a-pcDNA3 and N2a-mLRP4 cells were plated at 16,250 cells/cm^2 in 48-well plates and grown overnight. Serial dilutions of freshly prepared synthetic Aβ42 were prepared by diluting the Aβ42 stock with internalization media. Culture media was then replaced with media containing 0, 1 or 3 µM Aβ42 and cells were incubated for an additional 24, 48 or 72 h. Cell viability was measured by using one-solution cell titer kit at each corresponding time point (Promega, Madison, WI). After 4 h labeling, the soluble reduced formazan product was quantified by directly reading the plate in a Bio-Tek plate reader. After background subtraction from media-only containing wells, results were represented as % of the corresponding control and untreated N2a cells.

[2] = system: LRP1; details: ref [23], [36]; cited from earlier work
[3] = system: N2a-mLRP4-Tless cells; assay: Kinetic analysis of 125I-RAP endocytosis; assay type: cell-based, mouse; details: 5 nM 125I-RAP, 4°C 60 min, then 37°C; internalized/total cell-associated ligand; triple determinations
Experimental: Figure 4 LRP1 endocytosis is required for Aβ42 uptake and accumulation in N2a cells. A, clathrin heavy chain (CHC) knockdown increases cell surface levels of mLRP4. N2a-mLRP4 cells were infected with CHC shRNA lentivirus or pLKO, control lentivirus. The levels of cell surface and total pools of mLRP4 were determined by flow cytometric analyses with anti-HA antibody in non-permeabilized and saponin-treated cells, respectively. The surface-to-total ratio were calculated and plotted as fold-change to control-infected cells. Right panel, decreased CHC levels and normal mLRP4 levels in transduced N2a-mLRP4 cells were verified by Western blot from sister cultures. […] The intracellular level of FAM-Aβ42 was determined by flow cytometric analyses of pronase-treated cells. […] The cell surface and total pools of the LRP1 minireceptor were determined by flow cytometric analyses with anti-HA antibody as in A in N2a-mLRP4 cells and in N2a cells stably transfected with a deletion variant lacking the cytoplasmic tail of mLRP4 (mLRP4-Tless). The surface-to-total ratios were then calculated and plotted as fold-change to N2a-mLRP4 cells. […] At each time point, the amounts of ligand that is either internalized or that remains at the cell surface were determined and the ratios of internalized to total cell-associated ligand were plotted against time. […]

Aβ42: Unlabeled synthetic Aβ42 obtained from Bachem
cell viability (reduction of MTS dye) [1]: slight yet significant decrease; also recorded: Decreased viability

RAP: LRP1 chaperone of 39-kDa, model extracellular ligand for LRP1; labeled with Alexa-488 for uptake
affinity of RAP binding to LRP1 [2]: high affinity

B1: ^125I-RAP: iodinated RAP protein used at 5 nM for kinetic analysis of endocytosis (protein, UniProt P30533 35-357, looked up)
Alpha-2-macroglobulin …: YSREKNQPKPSPKRESGEEFRMEKLNQLWEKAQRLHLPPVRLAELHADLKIQERDELAWKKLKLDGLDEDGEKEARLIRNLNVILAKYGLDGKKDARQVTSNSLSGTQEDGLDDPRLEKLWHKAKTSGKFSGEELDKLWREFLHHKEKVHEYNVLLETLSRTEEIHENVISPSDLSDIKGSVLHSRHTELKEKLRSINQGLDRLRRVSHQGYSTEAEFEEPRVIDLWDLAQSANLTDKELEAFREELKHFEAKIEKHNHYQKQLEIAHEKLRHAESVGDGERVSRSREKHALLEGRTKELGYTVKKHLQDLSGRISRARHNEL
modifications: 125I-labeled
notes: iodinated RAP protein used at 5 nM for kinetic analysis of endocytosis
endocytosis rate for 125I-RAP in N2a-mLRP4-Tless vs N2a-mLRP4 cells [3]: decreased
